According to paper PMC3084761:

Molecular target: ECFP-FKBP38 fusion protein (pECFP-C1-FKBP38), Q14318
Assay: FRET or BRET; live-cell confocal FRET of ECFP (donor) and EYFP (acceptor) fusions in HEK293 cells transfected 48 h; acceptor/donor plasmid ratios 1:1 to 5:1; FRET efficiency against A/D ratio fitted to a 1:1 binding model
Details: remark: other sources report otherwise

Sequence of ECFP-FKBP38 fusion protein (pECFP-C1-FKBP38), Q14318 (Q14318 whole entry, the tested form may be a part): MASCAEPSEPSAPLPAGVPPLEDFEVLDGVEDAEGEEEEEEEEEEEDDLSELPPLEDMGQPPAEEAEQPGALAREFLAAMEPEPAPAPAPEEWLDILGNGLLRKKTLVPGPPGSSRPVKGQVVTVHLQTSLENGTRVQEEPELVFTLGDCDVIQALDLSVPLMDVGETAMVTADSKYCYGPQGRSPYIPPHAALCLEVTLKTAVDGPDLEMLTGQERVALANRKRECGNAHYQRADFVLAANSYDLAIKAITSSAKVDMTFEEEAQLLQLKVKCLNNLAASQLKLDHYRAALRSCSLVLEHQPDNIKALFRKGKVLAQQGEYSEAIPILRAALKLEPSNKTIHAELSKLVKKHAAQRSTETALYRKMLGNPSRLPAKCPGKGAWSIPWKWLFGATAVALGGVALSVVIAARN

maximum FRET efficiency: > 20%
B1: PHD2-EYFP (PHD2 coding sequence in pEYFP-N1), Q9GZT9 1-426 (enzyme)
chain: MANDSGGPGGPSPSERDRQYCELCGKMENLLRCSRCRSSFYCCKEHQRQDWKKHKLVCQGSEGALGHGVGPHQHSGPAPPAAVPPPRAGAREPRKAAARRDNASGDAAKGKVKAKPPADPAAAASPCRAAAGGQGSAVAAEAEPGKEEPPARSSLFQEKANLYPPSNTPGDALSPGGGLRPNGQTKPLPALKLALEYIVPCMNKHGICVVDDFLGKETGQQIGDEVRALHDTGKFTDGQLVSQKSDSSKDIRGDKITWIEGKEPGCETIGLLMSSMDDLIRHCNGKLGSYKINGRTKAMVACYPGNGTGYVRHVDNPNGDGRCVTCIYYLNKDWDAKVSGGILRIFPEGKAQFADIEPKFDRLLFFWSDRRNPHEVQPAYATRYAITVWYFDADERARAKVKYLTGEKGVRVELNKPSDSVGKDVF
